Data as given in article PMC4501837, “Mutational Dissection of Telomeric DNA Binding Requirements of G4 Resolvase 1 Shows that G4-Structure and Certain 3’-Tail Sequences Are Sufficient for Tight and Complete Binding”.

What was measured:
[1] = biological target: T1, G4 Resolvase 1 (G4R1) (UniProt Q9H2U1 1-1008); assay: EMSA; K+; 50 mM KCl, 10 mM NaCl (or 50 mM KCl or 50 mM NaCl alone), 3 mM MgCl2, 50 mM Tris acetate pH 7.8, 70 mM glycine, 0.012% bovine lactalbumin, 10% glycerol, 10 mM EDTA; 37 C, 0.5 or 24 h; 1 pM DNA, 10-500 pM G4R1; gel at 7 C; conditions: protein: recombinant, label: 5'-32P, unimolecular G4, 3+1 in K+
T1 sequence: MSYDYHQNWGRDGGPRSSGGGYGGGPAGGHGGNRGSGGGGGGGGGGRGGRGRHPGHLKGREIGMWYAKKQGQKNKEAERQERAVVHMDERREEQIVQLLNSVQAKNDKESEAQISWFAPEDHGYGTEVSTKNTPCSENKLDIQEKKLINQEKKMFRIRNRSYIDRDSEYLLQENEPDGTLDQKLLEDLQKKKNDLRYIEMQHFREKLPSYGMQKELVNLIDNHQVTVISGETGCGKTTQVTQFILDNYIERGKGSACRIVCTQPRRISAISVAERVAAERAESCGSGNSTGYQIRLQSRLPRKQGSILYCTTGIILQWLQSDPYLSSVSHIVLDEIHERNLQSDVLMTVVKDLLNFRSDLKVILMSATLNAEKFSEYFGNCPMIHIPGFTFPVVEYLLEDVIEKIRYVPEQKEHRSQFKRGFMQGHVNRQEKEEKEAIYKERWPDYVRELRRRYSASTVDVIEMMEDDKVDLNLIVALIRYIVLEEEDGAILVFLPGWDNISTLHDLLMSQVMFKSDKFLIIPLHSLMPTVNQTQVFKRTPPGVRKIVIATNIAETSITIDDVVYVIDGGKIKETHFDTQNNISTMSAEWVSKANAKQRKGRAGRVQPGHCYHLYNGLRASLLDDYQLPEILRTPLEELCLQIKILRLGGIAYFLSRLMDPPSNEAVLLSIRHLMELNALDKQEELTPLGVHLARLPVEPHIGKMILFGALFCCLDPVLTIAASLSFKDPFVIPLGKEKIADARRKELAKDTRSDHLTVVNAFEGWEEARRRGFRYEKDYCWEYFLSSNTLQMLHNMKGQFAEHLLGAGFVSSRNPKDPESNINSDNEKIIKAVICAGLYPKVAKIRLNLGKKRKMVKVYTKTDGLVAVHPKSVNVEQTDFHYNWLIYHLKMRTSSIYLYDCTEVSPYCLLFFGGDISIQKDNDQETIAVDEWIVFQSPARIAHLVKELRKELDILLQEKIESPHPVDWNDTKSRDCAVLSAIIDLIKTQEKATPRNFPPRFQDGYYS

[2] = biological target: T1, G4 Resolvase 1 (G4R1); assay: EMSA; K+; similar to Tel33; 50 mM KCl, 10 mM NaCl (or 50 mM KCl or 50 mM NaCl alone), 3 mM MgCl2, 50 mM Tris acetate pH 7.8, 70 mM glycine, 0.012% bovine lactalbumin, 10% glycerol, 10 mM EDTA; 37 C, 0.5 or 24 h; 1 pM DNA, 10-500 pM G4R1; gel at 7 C; conditions: protein: recombinant, label: 5'-32P
[3] = biological target: T1, G4 Resolvase 1 (G4R1); assay: EMSA; 50 mM KCl, K+-induced 3+1 G4, 24 h; apparent Kd, n=3; 50 mM KCl, 10 mM NaCl (or 50 mM KCl or 50 mM NaCl alone), 3 mM MgCl2, 50 mM Tris acetate pH 7.8, 70 mM glycine, 0.012% bovine lactalbumin, 10% glycerol, 10 mM EDTA; 37 C, 0.5 or 24 h; 1 pM DNA, 10-500 pM G4R1; gel at 7 C; conditions: protein: recombinant; label: 5'-32P; unimolecular G4; 3+1 in K+, 2+2 basket in Na+
[4] = biological target: T1, G4 Resolvase 1 (G4R1); assay: EMSA; K+; complete binding restored; 50 mM KCl, 10 mM NaCl (or 50 mM KCl or 50 mM NaCl alone), 3 mM MgCl2, 50 mM Tris acetate pH 7.8, 70 mM glycine, 0.012% bovine lactalbumin, 10% glycerol, 10 mM EDTA; 37 C, 0.5 or 24 h; 1 pM DNA, 10-500 pM G4R1; gel at 7 C; conditions: protein: recombinant; label: 5'-32P; unimolecular G4, two tetrads expected
[5] = biological target: T1, G4 Resolvase 1 (G4R1); assay: EMSA; K+; significant binding restored; 50 mM KCl, 10 mM NaCl (or 50 mM KCl or 50 mM NaCl alone), 3 mM MgCl2, 50 mM Tris acetate pH 7.8, 70 mM glycine, 0.012% bovine lactalbumin, 10% glycerol, 10 mM EDTA; 37 C, 0.5 or 24 h; 1 pM DNA, 10-500 pM G4R1; gel at 7 C; conditions: protein: recombinant; label: 5'-32P; unimolecular G4, two tetrads expected
[6] = biological target: T1, G4 Resolvase 1 (G4R1); assay: EMSA; K+; negligible binding; 50 mM KCl, 10 mM NaCl (or 50 mM KCl or 50 mM NaCl alone), 3 mM MgCl2, 50 mM Tris acetate pH 7.8, 70 mM glycine, 0.012% bovine lactalbumin, 10% glycerol, 10 mM EDTA; 37 C, 0.5 or 24 h; 1 pM DNA, 10-500 pM G4R1; gel at 7 C; conditions: protein: recombinant; label: 5'-32P; G4 ablated (CD)
[7] = biological target: T1, G4 Resolvase 1 (G4R1); assay: EMSA; K+; did not significantly bind; 50 mM KCl, 10 mM NaCl (or 50 mM KCl or 50 mM NaCl alone), 3 mM MgCl2, 50 mM Tris acetate pH 7.8, 70 mM glycine, 0.012% bovine lactalbumin, 10% glycerol, 10 mM EDTA; 37 C, 0.5 or 24 h; 1 pM DNA, 10-500 pM G4R1; gel at 7 C; conditions: protein: recombinant; label: 5'-32P; unimolecular G4, 3+1 in K+, at most 2 nt 3' tail
[8] = unimolecular 5' G4 with about 11 nt 3' tail

AGGGTTAGGGTTAGGGTTAGGG (structured_DNA) [Tel22]
binding result ([1]; no 3' tail): no binding

AGGGTTAGGGTTAGGGTTAGGGTTAGAATTTTT (structured_DNA) [Tel22-3'polyT-mutAGAA]
binding result [2, 8]: binds

AGGGTTAGGGTTAGGGTTAGGGTTAAGATTTTT (structured_DNA) [Tel22-3'polyT-mutAAGA]
binding result [2, 8]: binds

GGTTAGGGTTAGGGTTAGGGTTAGGGTTAG (structured_DNA) [Tel30]
binding result [1]: binds

TTAGGGTTAGGGTTAGGGTTAGGGTTAGGGTTA (structured_DNA) [Tel33]
Kd [3]: 0.01 ± 0.0019 nM

TTAGAGGTAGGGTTAGGGTTAGGGTTAGAGTTA (structured_DNA) [Tel33mut5-mutA-pos7G]
binding result [4]: binds

TTGGAGTTAGGGTTAGGGTTAGGGTTAGAGTTA (structured_DNA) [Tel33mut5-mutA-pos3G]
binding result [5]: binds

TTAGGGTTAGGGTTAGGGTTAGGGTTAGAGTTA (structured_DNA) [Tel33mut5]
binding result ([2]; unimolecular 5' G4 with 3' tail about 11 nt): binds

TTAGAGTTAGGGTTAGGGTTAGGGTTAGAGTTA (ssDNA) [Tel33mut5-mutA]
binding result [6]: no binding

TTAGGGTTAGGGTTAGGGTTAGGGTT (structured_DNA) [Tel26]
binding result [7]: no binding
